The target in assay [1] is binding of FAM19A5 protein to LRRC4B (amino acids 453-576)-hFc (Homo sapiens, UniProt Q7Z5A7). The assay is described as follows: Competitive inhibition assay, plate coated with LRRC4B (amino acids 453-576)-hFc, peptides at 20 nM. From the text:
(§1) Next, to assess whether polypeptides comprising the binding domains of LRRC4 or LRRC4C proteins can have similar inhibitory effects on LRRC4B protein binding, the following synthetic peptides were constructed: (1) FBC4-23 (contains the binding domain of the LRRC4 protein, i.e., YSFFTTVTVETTE); and (2) FBC4C-23 (contains the binding domain of the LRRC4C protein, i.e., FSYFSTVTVETME). Then, the ability of the peptides to inhibit the binding of LRRC4 protein family members to FAM19A5 protein was assessed using a competitive inhibition assay. Briefly, plates were coated with 100 nM of either LRRC4B protein fragment #1 (amino acids 36-576 of SEQ ID NO: 2; SEQ ID NO: 5) or LRRC4B protein fragment #2 (amino acids 453-576 of SEQ ID NO: 2; SEQ ID NO: 7). Then, recombinant FAM19A5 protein (5 ng/ml for plates coated with LRRC4B fragment #1; and 1 ng/mL for plates coated with LRRC4B fragment #2) was added to the plates in combination with 20 nM of the FBC4-23, FBC4C-23, and FB-20 peptides. The plates were incubated at 37° C. and then, the amount of FAM19A5 protein bound to the coated LRRC4B protein fragments was assessed using HRP-conjugated anti-FAM19A5 (1-65) antibody.
(§2) Next, to determine the minimal sequence required to inhibit the interaction of FAM19A5 and members of the LRRC4 protein family, ten FB-20 peptide variants were constructed by serially deleting one or more amino acids from the N-terminus or C-terminus of the FB-20 peptide. Then, a competitive inhibition assay was used to assess the ability of the different FB-20 peptide variants to inhibit the interaction between FAM19A5 and LRRC4B protein. Again, plates were coated with 100 nM of either LRRC4B protein fragment #1 (amino acids 36-576 of SEQ ID NO: 2; SEQ ID NO: 5) or LRRC4B protein fragment #2 (amino acids 453-576 of SEQ ID NO: 2; SEQ ID NO: 7). Then, recombinant FAM19A5 protein (5 ng/ml for plates coated with LRRC4B fragment #1; and 1 ng/mL for plates coated with LRRC4B fragment #2) was added to the plates in combination with 20 nM of the different peptides described above. After incubating the plates at 37° C., the amount of FAM19A5 protein bound to the coated LRRC4B protein fragments was assessed using HRP-conjugated anti-FAM19A5 (1-65) antibody.
To identify the critical amino acid residues, multiple FB-20 peptide mutants were constructed, in which the individual residues of the core binding domain (i.e., YTYFTTVTVETLE; SEQ ID NO: 15) were substituted with alanine (A) or asparagine (N). Then, the ability of these FB-20 peptide mutants to inhibit the interaction between LRRC4B and FAM19A5 proteins was assessed, as described in Examples 3 and 4.

Assay [2] concerns the target binding of FAM19A5 protein to full-length ectodomain of the LRRC4B protein (amino acids 36-576 of SEQ ID NO: 2) (Homo sapiens, UniProt Q7Z5A7). In words: Competitive inhibition assay, plate coated with full-length ectodomain of LRRC4B (amino acids 36-576). The conditions noted are these: for inhibition of interaction between FAM19A5 and the coated LRRC4B protein fragments (in words): statement covers both coats, LRRC4B (36-576) and LRRC4B (453-576); for inhibition of FAM19A5 binding to coated full-length LRRC4B ectodomain protein (in words): increasing concentrations, FAM19A5 5 ng/mL, 100 nM coat. As to the method: Next, to further assess the role that the binding domain of the LRRC4B protein has on the interaction between FAM19A5 protein and members of the LRRC4 protein family, a competitive inhibition assay was used to determine whether different LRRC4B deletion constructs from Example 2 could inhibit the binding of FAM19A5 to the full-length ectodomain of the LRRC4B protein (i.e., amino acids 36-576 of SEQ ID NO: 2; SEQ ID NO: 5). Briefly, 100 nM of the full-length ectodomain of the LRRC4B protein was used to coat a plate, and then recombinant FAM19A5 protein (5 ng/mL) was added to the plate in combination with the following LRRC4B deletion constructs (increasing concentrations): (1) LRRC4B (453-576) (i.e., construct #11 in Table 6); (2) LRRC4B (453-576) mutant (comprises alanine substitutions at positions 488 and 489 of SEQ ID NO: 2; SEQ ID NO: 16); (3) LRRC4B (484-576) (i.e., construct #12 in Table 6); (4) LRRC4B (482-576); (5) LRRC4B (482-497); and (6) LRRC4B (498-576). The plates were incubated at 37° C., and then, the amount of FAM19A5 bound to the coated LRRC4B ectodomain protein was measured using HRP-conjugated anti-FAM19A5 (1-65) antibody.
As described in Example 3, there appeared to be much similarity in the binding domains of the different members of the LRRC4 family. […] Then, recombinant FAM19A5 protein (5 ng/mL) was added in combination with one of the following: (i) LRRC4B (484-576) protein fragment, (ii) LRRC4B (453-576, AA) protein fragment, and (iii) synthetic FB-20 peptide. The plates were incubated at 37° C., and then, the amount of FAM19A5 protein bound to the coated LRRC4, LRRC4B, or LRRC4C proteins was measured using anti-FAM19A5 (1-65) antibody.
as §1
as §2, with “antibody. […]” for “antibody.”

Setting [3] is: Table 9, deletion variants, 20 nM peptide, FAM19A5 1 ng/mL.
Setting [4] is: Table 9, deletion variants, 20 nM peptide, FAM19A5 5 ng/ml.
Setting [5] is: Table 10, alanine/asparagine mutants.
The mark [6] stands for this setting: Table 8, 20 nM peptide, FAM19A5 1 ng/mL.
[7] abbreviates: Table 8, 20 nM peptide, FAM19A5 5 ng/ml.

Ends that are not written are not given here.

Sequence of binding of FAM19A5 protein to LRRC4B (amino acids 453-576)-hFc (Q7Z5A7 44-132): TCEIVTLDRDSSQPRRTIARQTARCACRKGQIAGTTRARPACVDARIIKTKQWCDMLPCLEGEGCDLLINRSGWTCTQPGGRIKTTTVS
Sequence of binding of FAM19A5 protein to full-length ectodomain of the LRRC4B protein (amino acids 36-576 of SEQ ID NO: 2) (Q7Z5A7 44-132): as above

For KNYTYFTTVNKETQ [FB-m7dC], the “Inhibition rate (%) LRRC4B (amino acids 453-576)-hFc” value in assay [1] (setting [3]) was determined as 0.4%. In addition, the “inhibition of interaction between FAM19A5 and the coated LRRC4B protein fragments (in words)” value in assay [2] (20 nM peptide) is listed as “failed to significantly inhibit”. In addition, in assay [2] (setting [4]), the “Inhibition rate (%) LRRC4B (amino acids 36-576)-hFc” value is listed as 4.4%.
In the case of KNTTVTVETNKETQ [FB-m7dN], in assay [1] (setting [3]), the “Inhibition rate (%) LRRC4B (amino acids 453-576)-hFc” value is −1.8%. In assay [2] (20 nM peptide), the “inhibition of interaction between FAM19A5 and the coated LRRC4B protein fragments (in words)” value is on record as “failed to significantly inhibit”. Also, the “Inhibition rate (%) LRRC4B (amino acids 36-576)-hFc” value in assay [2] (setting [4]) was found to be 2.0%.
On the same counts, the results for KNFTTVTVETNKETQ [FB-m8dN] are −1.1%, “failed to significantly inhibit” and 3.3%.
On to GYTYFATVTVETLETQPGEE [FB-20[A5]], for which the “Inhibition rate (%) LRRC4B (amino acids 453-576)-hFc” value in assay [1] (setting [5]) is 22.2%. For the same molecule, the “Inhibition rate (%) LRRC4B (amino acids 36-576)-hFc” value in assay [2] (setting [5]) is 53.4%.
On the same counts, the results for GYTYFTTVTAETLETQPGEE [FB-20[A9]] are 3.8% and 21.5%.
As to KNYTYFTTVTVNKETQ [FB-m9dC], the “Inhibition rate (%) LRRC4B (amino acids 453-576)-hFc” value in assay [1] (setting [3]) is reported as 2.7%. Further, the “inhibition of interaction between FAM19A5 and the coated LRRC4B protein fragments (in words)” value in assay [2] (20 nM peptide) is recorded as “failed to significantly inhibit”. Moreover, the “Inhibition rate (%) LRRC4B (amino acids 36-576)-hFc” value in assay [2] (setting [4]) is on record as 16.8%.
On the same counts, the results for KNYFTTVTVETNKETQ [FB-m9dN] are −1.6%, “failed to significantly inhibit” and 2.5%.
On to NFSYFSTVTVETMEPSQDERTTR [FBC4C-23], for which the “Inhibition rate (%) LRRC4B (amino acids 453-576)-hFc” value in assay [1] (setting [6]) is listed as 40.4%. For the same molecule, in assay [2] (20 nM peptide), the “inhibition of interaction between FAM19A5 and the coated LRRC4B protein fragments (in words)” value is reported as “significantly decreased the interaction”. Moreover, in assay [2] (setting [7]), the “Inhibition rate (%) LRRC4B (amino acids 36-576)-hFc” value was determined as 65.7%.
Consider GYTYFTTVTVETAETQPGEE [FB-20[A12]], for which, in assay [1] (setting [5]), the “Inhibition rate (%) LRRC4B (amino acids 453-576)-hFc” value turned out to be 56.2%. In assay [2] (setting [5]), the “Inhibition rate (%) LRRC4B (amino acids 36-576)-hFc” value is 73.0%.
For GYTYFTTNTVETLETQPGEE [FB-20[N7]], in assay [1] (setting [5]), the “Inhibition rate (%) LRRC4B (amino acids 453-576)-hFc” value stood at 8.3%. For the same molecule, in assay [2] (setting [5]), the “Inhibition rate (%) LRRC4B (amino acids 36-576)-hFc” value was 24.5%.
For GYTYFNTVTVETLETQPGEE [FB-20[N5]], in that order: 30.5% and 56.1%.
For GYTYATTVTVETLETQPGEE [FB-20[A4]], in that order: 1.5% and 2.7%.
NYSFFTTVTVETTEISPEDTTRK [FBC4-23]: the “Inhibition rate (%) LRRC4B (amino acids 453-576)-hFc” value in assay [1] (setting [6]) is listed as 40.4%. In addition, the “inhibition of interaction between FAM19A5 and the coated LRRC4B protein fragments (in words)” value in assay [2] (20 nM peptide) is on record as “significantly decreased the interaction”. Moreover, the “Inhibition rate (%) LRRC4B (amino acids 36-576)-hFc” value in assay [2] (setting [7]) is given as 64.1%.
Consider GYTYFTTVAVETLETQPGEE [FB-20[A8]], for which the “Inhibition rate (%) LRRC4B (amino acids 453-576)-hFc” value in assay [1] (setting [5]) is −0.4%. Also, in assay [2] (setting [5]), the “Inhibition rate (%) LRRC4B (amino acids 36-576)-hFc” value is on record as 3.9%.
On to “LRRC4B (482-497): LRRC4B ectodomain fragment, amino acids 482-497 of SEQ ID NO: 2 (GGYTYFTTVTVETLET; also: dimerising Fc or GST fusion left off)”, for which, in assay [2], the “inhibition of FAM19A5 binding to coated full-length LRRC4B ectodomain protein (in words)” value is listed as “also able to inhibit the interaction”.
Consider GYTYNTTVTVETLETQPGEE [FB-20[N4]], for which the “Inhibition rate (%) LRRC4B (amino acids 453-576)-hFc” value in assay [1] (setting [5]) is given as 2.5%. The “Inhibition rate (%) LRRC4B (amino acids 36-576)-hFc” value in assay [2] (setting [5]) is −1.3%.
On the same counts, the results for GYTYFTTVTVENLETQPGEE [FB-20[N11]] are 55.6% and 74.1%.
Regarding GYTNFTTVTVETLETQPGEE [FB-20[N3]], the “Inhibition rate (%) LRRC4B (amino acids 453-576)-hFc” value in assay [1] (setting [5]) came out at 4.0%. The “Inhibition rate (%) LRRC4B (amino acids 36-576)-hFc” value in assay [2] (setting [5]) is recorded as −5.0%.
On the same counts, the results for GNTYFTTVTVETLETQPGEE [FB-20[N1]] are 3.1% and 11.9%.
Turning to KNYTYFTTVTVETNKETQ [FB-m11dC], the “Inhibition rate (%) LRRC4B (amino acids 453-576)-hFc” value in assay [1] (setting [3]) worked out at 30.4%. Further, the “inhibition of interaction between FAM19A5 and the coated LRRC4B protein fragments (in words)” value in assay [2] (20 nM peptide) is listed as “substantially inhibited the interaction”. In addition, the “Inhibition rate (%) LRRC4B (amino acids 36-576)-hFc” value in assay [2] (setting [4]) was determined as 65.0%.
KNYTYFTTVTVENKETQ [FB-m10dC]: the “Inhibition rate (%) LRRC4B (amino acids 453-576)-hFc” value in assay [1] (setting [3]) was 21.9%. In assay [2] (setting [4]), the “Inhibition rate (%) LRRC4B (amino acids 36-576)-hFc” value is on record as 62.0%.
For the molecule GYTYFTAVTVETLETQPGEE [FB-20[A6]], the “Inhibition rate (%) LRRC4B (amino acids 453-576)-hFc” value in assay [1] (setting [5]) is given as 11.0%. Further, in assay [2] (setting [5]), the “Inhibition rate (%) LRRC4B (amino acids 36-576)-hFc” value is reported as 17.9%.
Turning to GYAYFTTVTVETLETQPGEE [FB-20[A2]], the “Inhibition rate (%) LRRC4B (amino acids 453-576)-hFc” value in assay [1] (setting [5]) is given as −0.4%. Also, in assay [2] (setting [5]), the “Inhibition rate (%) LRRC4B (amino acids 36-576)-hFc” value is on record as 1.0%.
Consider GYNYFTTVTVETLETQPGEE [FB-20[N2]], for which, in assay [1] (setting [5]), the “Inhibition rate (%) LRRC4B (amino acids 453-576)-hFc” value was −2.0%. Further, in assay [2] (setting [5]), the “Inhibition rate (%) LRRC4B (amino acids 36-576)-hFc” value is −0.7%.

B1: LRRC4B (482-576): LRRC4B ectodomain fragment, amino acids 482-576 of SEQ ID NO: 2 (protein)
chain: GGYTYFTTVTVETLETQPGEEALQPRGTEKEPPGPTTDGVWGGGRPGDAAGPASSSTTAPAPRSSRPTEKAFTVPITDVTENALKDLDDVMKTTK
Consider B1, for which, in assay [2], the “inhibition of FAM19A5 binding to coated full-length LRRC4B ectodomain protein (in words)” value is given as “also able to inhibit the interaction”.

Values taken from patent publication US20240238445A1, “INHIBITORS AND USES THEREOF” (NEURACLE SCIENCE CO., LTD., priority 2021, published 2024).
